Reference: US20120316071A1 (published 2012)
Each block holds one binder with its values, some of them ahead of it.

Experiments:
[1] = molecular target: T1, rHuman IGF-1 sR, (IGF-1 sR), CF (R&D Systems Cat#391-GR) (human, UniProt P08069 31-932); experiment: MSD Multispot ECL, antigen spotted on plate, Fab 57.5 nM; blank spot 954
T1 construct: Bought soluble receptor; also called insulin-like growth factor-1 soluble receptor

[2] = molecular target: T2, Recombinant Human DLL4 (R&D Systems Cat#1506-D4/CF) (human, UniProt Q9NR61 27-529); experiment: as above
T2 construct: Bought recombinant protein; also called rHuman DLL4; delta-like protein 4

[3] = molecular target: T3, rHuman Erythropoietin R/Fc Chimera, CF (R&D Systems Cat#963-ER) (human, UniProt P19235 25-250); experiment: as above
T3 construct: Bought reagent; also called EPO R/Fc; EPO R; Fc part of the bought chimera not given
T3 sequence (looked up): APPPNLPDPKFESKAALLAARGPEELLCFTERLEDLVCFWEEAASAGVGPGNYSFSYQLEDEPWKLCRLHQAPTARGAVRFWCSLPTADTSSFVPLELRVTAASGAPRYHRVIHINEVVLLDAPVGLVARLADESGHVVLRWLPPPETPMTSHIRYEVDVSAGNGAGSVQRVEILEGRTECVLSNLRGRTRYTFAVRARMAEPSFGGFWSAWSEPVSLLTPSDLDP

[4] = molecular target: T4, rHuman Notch-1/Fc Chimera, CF (R&D Systems Cat#3647-TK) (human, UniProt P46531 19-526); experiment: as above
T4 construct: Bought reagent; Fc part of the bought chimera not given

[5] = molecular target: T1, rHuman IGF-1 sR, (IGF-1 sR), CF (R&D …); experiment: MSD Multispot ECL, antigen spotted on plate, Fab 14.375 nM; blank spot 738
[6] = molecular target: T2, Recombinant Human DLL4 (R&D Systems …); experiment: as above
[7] = molecular target: T3, rHuman Erythropoietin R/Fc Chimera, CF …; experiment: as above
[8] = molecular target: T4, rHuman Notch-1/Fc Chimera, CF (R&D …); experiment: as above
[9] = molecular target: T1, rHuman IGF-1 sR, (IGF-1 sR), CF (R&D …); experiment: MSD Multispot ECL, antigen spotted on plate, Fab 230 nM; blank spot 1656
[10] = molecular target: T2, Recombinant Human DLL4 (R&D Systems …); experiment: as above
[11] = molecular target: T3, rHuman Erythropoietin R/Fc Chimera, CF …; experiment: as above
[12] = molecular target: T4, rHuman Notch-1/Fc Chimera, CF (R&D …); experiment: as above
[13] = molecular target: T1, rHuman IGF-1 sR, (IGF-1 sR), CF (R&D …); experiment: MSD Multispot ECL, antigen spotted on plate, Fab 920 nM; blank spot 4082
[14] = molecular target: T2, Recombinant Human DLL4 (R&D Systems …); experiment: as above
[15] = molecular target: T3, rHuman Erythropoietin R/Fc Chimera, CF …; experiment: as above
[16] = molecular target: T4, rHuman Notch-1/Fc Chimera, CF (R&D …); experiment: as above
[17] = molecular target: T5, rHuman CD44/Fc Chimera, CF (R&D Systems Cat#3660-CD) (human, UniProt P16070 21-220); experiment: Multispot ECL (MSD), antigen spotted on plate, Fab 3.75 nM; blank spot 191
T5 construct: Bought recombinant protein; Fc part of the bought chimera not given

[18] = molecular target: T6, rHuman ErbB2/Fc Chimera, CF (R&D Systems Cat#1129-ER) (human, UniProt P04626 23-652); experiment: as above
T6 construct: Bought recombinant protein; also called human epidermal growth factor 2 receptor; Fc part of the bought chimera not given

[19] = molecular target: T7, Recombinant Human DLL4 (R&D Systems Cat#1506-D4/CF) (human, UniProt Q9NR61 27-524); experiment: as above
T7 construct: it includes the signal peptide (amino acids 1-25), the transmembrane region and the cytoplasmic domain; also called delta-like protein 4; rHuman DLL4

[20] = molecular target: T8, rHuman IGF-1 sR, (IGF-1 sR), CF (R&D Systems Cat#391-GR) (human, UniProt P08069 31-932); experiment: as above
T8 construct: Bought soluble receptor; also called insulin-like growth factor-1 soluble receptor

[21] = molecular target: T5, rHuman CD44/Fc Chimera, CF (R&D Systems …); experiment: Multispot ECL (MSD), antigen spotted on plate, Fab 15 nM; blank spot 536
[22] = molecular target: T6, rHuman ErbB2/Fc Chimera, CF (R&D …); experiment: as above
[23] = molecular target: T7, Recombinant Human DLL4 (R&D Systems …); experiment: as above
[24] = molecular target: T8, rHuman IGF-1 sR, (IGF-1 sR), CF (R&D …); experiment: as above
[25] = molecular target: T5, rHuman CD44/Fc Chimera, CF (R&D Systems …); experiment: Multispot ECL (MSD), antigen spotted on plate, Fab 60 nM; blank spot 1433
[26] = molecular target: T6, rHuman ErbB2/Fc Chimera, CF (R&D …); experiment: as above
[27] = molecular target: T7, Recombinant Human DLL4 (R&D Systems …); experiment: as above
[28] = molecular target: T8, rHuman IGF-1 sR, (IGF-1 sR), CF (R&D …); experiment: as above
[29] = molecular target: T5, rHuman CD44/Fc Chimera, CF (R&D Systems …); experiment: Multispot ECL (MSD), antigen spotted on plate, Fab 0.9375 nM; blank spot 153
[30] = molecular target: T6, rHuman ErbB2/Fc Chimera, CF (R&D …); experiment: as above
[31] = molecular target: T7, Recombinant Human DLL4 (R&D Systems …); experiment: as above
[32] = molecular target: T8, rHuman IGF-1 sR, (IGF-1 sR), CF (R&D …); experiment: as above

ECL signal [1]: 2830 | ECL signal [2]: 144000 | ECL signal [3]: 4040 | ECL signal [4]: 5890 | ECL signal [5]: 1750 | ECL signal [6]: 125000 | ECL signal [7]: 2720 | ECL signal [8]: 4210 | ECL signal [9]: 4760 | ECL signal [10]: 119000 | ECL signal [11]: 6950 | ECL signal [12]: 9740 | ECL signal [13]: 10200 | ECL signal [14]: 73600 | ECL signal [15]: 16400 | ECL signal [16]: 20100
B1: Fab VH1-46_IGHD3-10*01_IGHJ4*01 & L12_IGKJ1*01 (Fab, V domains shown)
VH: QVQLVQSGAEVKKPGASVKVSCKASGYTFTSYYMHWVRQAPGQGLEWMGIINPSGGSTSYAQKFQGRVTMTRDTSTSTVYMELSSLRSEDTAVYYCAREYYYGSGSYYNDYFDYWGQGTLVTVSS
VL: not shown
notes: Tested as a Fab made in E. coli; VH was cloned into Plasmid A (CH1 with His6 and Flag tags) and the kappa VL into Plasmid C (kappa CL)

ECL signal [17]: 307 | ECL signal [18]: 291 | ECL signal [19]: 1570 | ECL signal [20]: 314 | ECL signal [21]: 748 | ECL signal [22]: 740 | ECL signal [23]: 7730 | ECL signal [24]: 859 | ECL signal [25]: 2360 | ECL signal [26]: 2160 | ECL signal [27]: 17300 | ECL signal [28]: 2670 | ECL signal [29]: 251 | ECL signal [30]: 268 | ECL signal [31]: 453 | ECL signal [32]: 204
B2: Fab VH1-3_IGHD4-23*01_IGHJ4*01 & L12_IGKJ1*01 (Fab, V domains shown)
VH: QVQLVQSGAEVKKPGASVKVSCKASGYTFTSYAMHWVRQAPGQRLEWMGWSNAGNGNTKYSQEFQGRVTITRDTSASTAYMELSSLRSEDMAVYYCARDDYGGNSDYFDYWGQGTLVTVSS
VL: not shown
